In assay [1] the target is T1, human CD39 (Accession No. NM_001776.6) expressed on cells (human, UniProt P49961 1-510).
T1 construct: whole, on cells; On Jurkat, 293T or SK-MEL28 cells; also called Jurkat/CD39; 293T/CD39
T1 sequence (looked up): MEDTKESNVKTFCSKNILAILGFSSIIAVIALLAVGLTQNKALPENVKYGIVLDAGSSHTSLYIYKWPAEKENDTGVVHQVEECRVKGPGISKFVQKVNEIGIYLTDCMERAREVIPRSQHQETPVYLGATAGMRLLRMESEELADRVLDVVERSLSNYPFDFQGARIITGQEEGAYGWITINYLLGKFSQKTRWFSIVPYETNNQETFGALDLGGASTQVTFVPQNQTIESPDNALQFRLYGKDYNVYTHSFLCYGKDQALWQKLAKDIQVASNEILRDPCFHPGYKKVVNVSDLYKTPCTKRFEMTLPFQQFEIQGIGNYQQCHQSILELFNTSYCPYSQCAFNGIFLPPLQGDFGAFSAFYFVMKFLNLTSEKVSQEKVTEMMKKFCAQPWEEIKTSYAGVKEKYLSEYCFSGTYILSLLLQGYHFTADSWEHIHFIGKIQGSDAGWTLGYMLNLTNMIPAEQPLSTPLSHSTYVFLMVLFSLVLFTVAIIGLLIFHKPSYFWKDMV
Kind of assay: flow cytometry, 293T/CD39 cells, KD from MFI.

The target of assay [2] is biotinylated human TIM-3-Fc antigen (in-house product, SEQ ID No: 118) (human, biotinylated). Kind of assay: flow cytometry, inhibition of biotinylated TIM-3-Fc binding to phosphatidylserine on apoptotic Jurkat cells. (A flow cytometer gives signals particle by particle.)
Assay [3] addresses T2, recombinant human CD39 (in-house product, 38 to 478 aa of Accession No. NM_001776.6) (human, UniProt P49961 38-478).
T2 construct: also called rhCD39; human CD39-ECD; not shown: Myc and His tags at the C-terminus are named only for the PE-lab
T2 sequence (looked up): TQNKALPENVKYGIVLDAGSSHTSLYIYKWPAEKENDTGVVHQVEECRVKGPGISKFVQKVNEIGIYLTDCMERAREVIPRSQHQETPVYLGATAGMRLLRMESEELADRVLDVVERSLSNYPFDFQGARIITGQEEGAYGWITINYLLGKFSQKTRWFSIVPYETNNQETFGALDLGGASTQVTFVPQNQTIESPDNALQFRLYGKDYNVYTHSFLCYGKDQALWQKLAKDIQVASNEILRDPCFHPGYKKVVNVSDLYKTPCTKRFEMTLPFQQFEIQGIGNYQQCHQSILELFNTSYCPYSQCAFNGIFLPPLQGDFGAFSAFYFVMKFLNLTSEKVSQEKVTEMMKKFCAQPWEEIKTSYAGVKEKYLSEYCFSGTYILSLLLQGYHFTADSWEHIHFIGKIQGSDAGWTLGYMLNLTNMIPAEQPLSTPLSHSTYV
The assay is described as follows: SPR Biacore8K, antibody captured on anti-human IgG, antigen as analyte. (SPR reads the build-up and loss of mass on a sensor chip optically.)

Assay [4] addresses T1, human CD39 (Accession No. NM_001776.6) …. Kind of assay: flow cytometry, Jurkat/CD39 cells, KD from MFI.
The target is the same in assay [5]. The assay is described as follows: flow cytometry, 293T/TIM-3 + CD39 cells, KD from MFI.
For assay [6] the target is unchanged. Kind of assay: flow cytometry, 293T/CD39 cells, KD from MFI. This is another data set of the same source.
Assay [7] shares this target. Kind of assay: flow cytometry, Jurkat/TIM-3 + CD39 cells, KD from MFI.
For assay [8], the target named is T2, recombinant human CD39 (in-house …). Kind of assay: SPR Biacore8K, antibody captured on anti-human IgG, antigen as analyte. The source holds these as a separate data set.

Like-named read-outs stand apart in the source and are kept apart here.

Results on eight molecules are retold here after patent publication US20260085127A1 (BRIGHTPATH BIOTHERAPEUTICS, published 2026).

B1: T86_Hu003_Fsc (bispecific antibody, not shown: a dimerising Fc or GST)
VH: QIQLVQSGPELKKPGETVKISCEASGYTFINYGMNWVKQAPGKGLKWMGWINTYTGEPTYADDFKGRFAFSLETSANTAYLQINNLKNEDTATYFCARKGYYGYPNYYAMDYWGQGTSVTVSS
VL: DIVMTQSQKFMSTSVGDRVSITCKASQNVGTAVAWYQQKPGQSPKLLIYSASNRYTGVPDRFTGSGSGTDFTLTISNMQSEDLADYFCQQYSSYPITFGTGTKLEIK
scFv: QVQLQESGGGLVKPGGSLKLSCAASGFTFSSYYMSWVRQTPDKRLEWVATISNSGGSTYYPDSVKDRFTISRDNAKNTLYLQMSSLKSEDTAMYYCARDPYYTNYVPMDYWGQGTMVTVSSGGGGSGGGGSGGGGSGGGGSDIVMTQSPSFLSASVGDRVTITCKASQYVDTYVAWYQQRPGKAPKPLIYSASTRHTGVPSRFSGSGSGTEFTLTISSLQPEDFATYFCAQYSSSPLTFGGGTKLELK
notes: Fab-scFv-Fc heterodimer: anti-CD39 Fab T86 (Knob)
Consider B1, for which the figures for the Kd in assay [1] and in assay [3] were 9.19 nM and 2.4 nM, respectively. In assay [2], this molecule gave an IC50 of 23.9 nM.

B2: mAnE67_Hu003_Fsc (bispecific antibody, not shown: a dimerising Fc or GST)
VH: EVQLVESGGGLVKPGGSRKLSCAASGFTFSDYGMHWVRQAPEKGLEWVAYISSGSSIIYYADTVKGRFTISRDNAKNTLFLQMTGLRSEDTAMYYCARKDYPYAMDYWGQGTSLAVSS
VL: SIVMTQTPKFMSTSVGDRVSVTCKASQNVGTNVAWYQQKPGQSPKALIYWASNRFTGVPDRFTGSGSGTDFTLTISNVQSEDLADYFCQQYSSSPYTFGSGTKLEIK
scFv: QVQLQESGGGLVKPGGSLKLSCAASGFTFSSYYMSWVRQTPDKRLEWVATISNSGGSTYYPDSVKDRFTISRDNAKNTLYLQMSSLKSEDTAMYYCARDPYYTNYVPMDYWGQGTMVTVSSGGGGSGGGGSGGGGSGGGGSDIVMTQSPSFLSASVGDRVTITCKASQYVDTYVAWYQQRPGKAPKPLIYSASTRHTGVPSRFSGSGSGTEFTLTISSLQPEDFATYFCAQYSSSPLTFGGGTKLELK
notes: Fab-scFv-Fc heterodimer: anti-CD39 mAnE67 arm (Knob)
For the molecule B2, the Kd in assay [1] amounted to 3.94 nM; in assay [3] it was 2.7 nM. The molecule also returned an IC50 in assay [2] of 19.8 nM.

B3: Tre291_Hu003_Fsc (bispecific antibody, not shown: a dimerising Fc or GST)
VH: QVQLKQSGPGLVQPSQSLSITCTVSGFSLTSYGVHWVRQSPGKGLEWLGVIWRRGSTDYNAAFMSRLSITKDTSKSQVFFKMNSLQTDDTAIYYCAGVRGDAMDYWGQGTSVTVSS
VL: DIVMTQSHKSMSTSVGDRVSVTCKASQNVGTNVAWYQQKPGQSPKALIYSASYRYSGVPDRFTGSGSGTDFTLTISNVQSEDLAEYFCQQYNSYPLTFGGGTKLEIK
scFv: QVQLQESGGGLVKPGGSLKLSCAASGFTFSSYYMSWVRQTPDKRLEWVATISNSGGSTYYPDSVKDRFTISRDNAKNTLYLQMSSLKSEDTAMYYCARDPYYTNYVPMDYWGQGTMVTVSSGGGGSGGGGSGGGGSGGGGSDIVMTQSPSFLSASVGDRVTITCKASQYVDTYVAWYQQRPGKAPKPLIYSASTRHTGVPSRFSGSGSGTEFTLTISSLQPEDFATYFCAQYSSSPLTFGGGTKLELK
notes: Fab-scFv-Fc heterodimer: anti-CD39 Fab Tre291 (Knob)
Take B3: the Kd in assay [1] amounted to 25.4 nM; in assay [3], 1.36 nM. The molecule also gave an IC50 in assay [2] of 22.4 nM.

B4: I67_sc (antibody)
scFv: DVQLQESGPSLVQPSQSLSINCTVSGFSLSSYGVHWVRQSPGKGLEWLGVIWRRGSTDYNAAFMSRLSITKDNSKSQVFFKMNRLQADDTATYYCAKGISTATSWFAYWGQGTLVTVSAGGGGSGGGGSGGGGSGGGGSDIVMTQSHKFMSTSVGDRVSVTCKASQNVGTNVAWYQQKPGQSPKALIYSASYRYSGVPDRFTGSGSGTDFTLTISNVQSEDLAEYFCQQYNSYPLTFGAGTKLELK
notes: scFv-Fc homodimer, anti-CD39 (mouse variable regions); also called scFv-Fc homodimeric antibody of anti-CD39_scFv antibody I67; not shown: linker and Fc-LALA (human IgG1 Fc with L234A and L235A)
For the molecule B4, the Kd in assay [4] was 0.329 nM; in assay [5], 6.8 nM; in assay [6], 2.37 nM; in assay [7] it was 0.208 nM; in assay [8], 1.65 nM. Moreover, the koff in assay [8] came to 0.00294 s⁻¹. In assay [8], the kon was 1.78e+06 M⁻¹ s⁻¹.

B5: mAnE67_sc (antibody)
scFv: EVQLVESGGGLVKPGGSRKLSCAASGFTFSDYGMHWVRQAPEKGLEWVAYISSGSSIIYYADTVKGRFTISRDNAKNTLFLQMTGLRSEDTAMYYCARKDYPYAMDYWGQGTSLAVSSGGGGSGGGGSGGGGSGGGGSSIVMTQTPKFMSTSVGDRVSVTCKASQNVGTNVAWYQQKPGQSPKALIYWASNRFTGVPDRFTGSGSGTDFTLTISNVQSEDLADYFCQQYSSSPYTFGSGTKLEIK
notes: scFv-Fc homodimer, anti-CD39 (mouse variable regions); also called scFv-Fc homodimeric antibody of anti-CD39_scFv antibody mAnE67; not shown: linker and Fc-LALA (human IgG1 Fc with L234A and L235A)
With B5, the Kd in assay [4] came to 0.334 nM; in assay [5], 5.5 nM; in assay [6], 2.19 nM; in assay [7] it was 0.343 nM; in assay [8] it was 4.75 nM. Also, in assay [8], the koff worked out at 0.00187 s⁻¹. Besides, in assay [8], the kon is 393000 M⁻¹ s⁻¹.

B6: T86_sc (antibody)
scFv: QIQLVQSGPELKKPGETVKISCEASGYTFINYGMNWVKQAPGKGLKWMGWINTYTGEPTYADDFKGRFAFSLETSANTAYLQINNLKNEDTATYFCARKGYYGYPNYYAMDYWGQGTSVTVSSGGGGSGGGGSGGGGSGGGGSDIVMTQSQKFMSTSVGDRVSITCKASQNVGTAVAWYQQKPGQSPKLLIYSASNRYTGVPDRFTGSGSGTDFTLTISNMQSEDLADYFCQQYSSYPITFGTGTKLEIK
notes: scFv-Fc homodimer, anti-CD39 (mouse variable regions); also called scFv-Fc homodimeric antibody of anti-CD39_scFv antibody T86; not shown: linker and Fc-LALA (human IgG1 Fc with L234A and L235A)
As for B6, the Kd in assay [4] was determined as 2.18 nM; in assay [5] it was 16.9 nM; in assay [6] it was 3.56 nM; in assay [7], 2.25 nM; in assay [8], 4.28 nM. Also, the koff in assay [8] was determined as 0.000823 s⁻¹. Besides, the kon in assay [8] was 192000 M⁻¹ s⁻¹.

B7: Tre_291_sc (antibody)
scFv: QVQLKQSGPGLVQPSQSLSITCTVSGFSLTSYGVHWVRQSPGKGLEWLGVIWRRGSTDYNAAFMSRLSITKDTSKSQVFFKMNSLQTDDTAIYYCAGVRGDAMDYWGQGTSVTVSSGGGGSGGGGSGGGGSGGGGSDIVMTQSHKSMSTSVGDRVSVTCKASQNVGTNVAWYQQKPGQSPKALIYSASYRYSGVPDRFTGSGSGTDFTLTISNVQSEDLAEYFCQQYNSYPLTFGGGTKLEIK
notes: scFv-Fc homodimer, anti-CD39 (mouse variable regions); not shown: linker and Fc-LALA (human IgG1 Fc with L234A and L235A)
Turning to B7, the Kd in assay [4] worked out at 0.8 nM; in assay [5], 7.15 nM; in assay [6], 2.43 nM; in assay [7] it was 0.922 nM; in assay [8], 2.22 nM. Also, the koff in assay [8] is 0.0031 s⁻¹. Besides, the kon in assay [8] turned out to be 1.4e+06 M⁻¹ s⁻¹.

B8: 6-3hIG_sc (antibody)
scFv: QVQLVQSGAELVKPGASVKLSCKASGFSIKDTYVHWVKQAPGKGLEWIGKIDPANVNTKFDPKFQGRVTITADTSTNTAYLQLSSLRSEDTAVYYCALYGYDDDAYYFDYWGQGTLVTVSSGGGGSGGGGSGGGGSGGGGSEIVLTQSPASLSVSPGERATISCRASESVDNYGISFMNWFQQKPGQAPKLLIYAASNQGSGVPARFSGSGSGTDFTLTISSLEPEDFAVYYCQQSKEVPYTFGQGTKLEIK
notes: scFv-Fc homodimer, anti-CD39; also called scFv-Fc homodimeric antibody of anti-CD39_scFv antibody (humanized) 6-3hIG; not shown: GGGG linker and Fc-LALA (human IgG1 Fc with L234A and L235A)
As for B8, the Kd is 42.1 nM in assay [4]; 26.6 nM in assay [5]; 18.6 nM in assay [6]; 33.6 nM in assay [7]; 0.465 nM in assay [8]. In addition, in assay [8], the koff was 0.000187 s⁻¹. For the same molecule, in assay [8], the kon came out at 402000 M⁻¹ s⁻¹.

Usually Kd stands for the free concentration of one partner at which half of the binding sites on the other are occupied at equilibrium, for simple one-to-one binding. By IC50 is commonly meant the concentration at which inhibition is half-maximal. A higher IC50 goes with lower potency. As usually defined, the koff is the first-order rate constant of dissociation. The term kon denotes a measure of how fast the partners come together.
